Data taken from article PMC9338935, “Structural determinants of DNA recognition by the NO sensor NsrR and related Rrf2-type [FeS]-transcription factors” (Communications Biology, 2022).
Positions count from the first letter of the chain named.

How the values were obtained:
[4Fe-4S]-NsrR (ScNsrR) [1] = target: T1, [4Fe-4S]-NsrR (ScNsrR) (Streptomyces coelicolor, UniProt Q9L132 1-148); assay: EMSA; [4Fe-4S] cluster; EMSA: 10 mM Tris, 54 mM KCl, 0.3% glycerol, 1.32 mM GSH, pH 7.5, on ice, ~4 nM DNA, up to ~20-fold molar excess [4Fe-4S] NsrR. Crystal complex: 50 mM Tris pH 8.0, 500 mM NaCl, 5% glycerol, 20 C, anaerobic; grown in PEG, 30 mM MgCl2, 30 mM CaCl2, MOPS/HEPES pH 8.0; conditions: protein: recombinant; chain copies: 2; label: 6-FAM (from PCR primers); blunt
T1 sequence: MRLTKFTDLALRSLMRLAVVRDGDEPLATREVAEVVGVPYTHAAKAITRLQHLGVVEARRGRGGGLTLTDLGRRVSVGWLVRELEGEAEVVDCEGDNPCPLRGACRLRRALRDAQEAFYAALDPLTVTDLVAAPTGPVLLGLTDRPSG

[4Fe-4S]-NsrR (ScNsrR) [2] = target: T1, [4Fe-4S]-NsrR (ScNsrR); assay: EMSA; [4Fe-4S] cluster; essentially stoichiometric, no significant difference; EMSA: 10 mM Tris, 54 mM KCl, 0.3% glycerol, 1.32 mM GSH, pH 7.5, on ice, ~4 nM DNA, up to ~20-fold molar excess [4Fe-4S] NsrR. Crystal complex: 50 mM Tris pH 8.0, 500 mM NaCl, 5% glycerol, 20 C, anaerobic; grown in PEG, 30 mM MgCl2, 30 mM CaCl2, MOPS/HEPES pH 8.0; conditions: protein: recombinant; chain copies: 2; label: 6-FAM (from PCR primers); blunt
[4Fe-4S]-NsrR (ScNsrR) [3] = target: T1, [4Fe-4S]-NsrR (ScNsrR); assay: EMSA; [4Fe-4S] cluster; no clear difference from wild type; EMSA: 10 mM Tris, 54 mM KCl, 0.3% glycerol, 1.32 mM GSH, pH 7.5, on ice, ~4 nM DNA, up to ~20-fold molar excess [4Fe-4S] NsrR. Crystal complex: 50 mM Tris pH 8.0, 500 mM NaCl, 5% glycerol, 20 C, anaerobic; grown in PEG, 30 mM MgCl2, 30 mM CaCl2, MOPS/HEPES pH 8.0; conditions: protein: recombinant; chain copies: 2; label: 6-FAM (from PCR primers); blunt
[4Fe-4S]-NsrR (ScNsrR) [4] = target: T1, [4Fe-4S]-NsrR (ScNsrR); assay: X-ray crystallography; [4Fe-4S] cluster; EMSA: 10 mM Tris, 54 mM KCl, 0.3% glycerol, 1.32 mM GSH, pH 7.5, on ice, ~4 nM DNA, up to ~20-fold molar excess [4Fe-4S] NsrR. Crystal complex: 50 mM Tris pH 8.0, 500 mM NaCl, 5% glycerol, 20 C, anaerobic; grown in PEG, 30 mM MgCl2, 30 mM CaCl2, MOPS/HEPES pH 8.0; conditions: protein: recombinant; chain copies: 2; blunt
[5] = target: the molecule itself; assay: crystal structure; [4Fe-4S]-ScNsrR dimer complexed with a 23 bp hmpA1 operator dsDNA fragment; 3.0 Å; crystallised anaerobically; space group P6_(5)

B1: Av003 wild type hmpA1 probe (dsDNA)
DNA 1: CTAAAACGACGGCCAGTCGGGATGACGGGCGGCGGCCCCCTGAGGCCGTCGAGCTGTGGCCTAAAACACGAATATCATCTACCAATTAAGGAGTCGCTGTGCTCTCCGAACAGTCCGTTCCCGTGGTCCGAGCCGTCATAGCTGTTTCCTG
DNA 2: CAGGAAACAGCTATGACGGCTCGGACCACGGGAACGGACTGTTCGGAGAGCACAGCGACTCCTTAATTGGTAGATGATATTCGTGTTTTAGGCCACAGCTCGACGGCCTCAGGGGGCCGCCGCCCGTCATCCCGACTGGCCGTCGTTTTAG
binding result ([4Fe-4S]-NsrR (ScNsrR) [1]): binds

B2: Av006 hmpA/T probe (dsDNA)
DNA 1: B1 DNA 1 with C76T, C79T
DNA 2: B1 DNA 2 with G73A, G76A
binding result ([4Fe-4S]-NsrR (ScNsrR) [2]): binds

B3: Av005 hmpXT2 probe (dsDNA)
DNA 1: B1 DNA 1 with T73A, C79T
DNA 2: B1 DNA 2 with G73A, A79T
binding result ([4Fe-4S]-NsrR (ScNsrR) [3]): binds

B4: Av007 hmpG/C probe (dsDNA)
DNA 1: B1 DNA 1 with T73C, A74G, T75C, A77G, T78C
DNA 2: B1 DNA 2 with A74G, T75C, A77G, T78C, A79G
binding result ([4Fe-4S]-NsrR (ScNsrR) [2]): binds

B5: Av004 hmpXT1 probe (dsDNA)
DNA 1: B1 DNA 1 with T75A, A77T
DNA 2: B1 DNA 2 with T75A, A77T
binding result ([4Fe-4S]-NsrR (ScNsrR) [3]): binds

B6: hmpA1 operator 23 bp (dsDNA)
DNA 1: AACACGAATATCATCTACCAATT
DNA 2: AATTGGTAGATGATATTCGTGTT
binding result ([4Fe-4S]-NsrR (ScNsrR) [4]): binds

B7: [4Fe-4S]-NsrR from Streptomyces coelicolor (natural protein)
chain: T1 sequence
notes: NsrR, NO-sensing Rrf2 family transcription factor of Streptomyces coelicolor; also called ScNsrR; [4Fe-4S]-ScNsrR
stoichiometry N [5]: 2
